# Measured values taken from patent US20120201826A1 (NOV IMMUNE S A, published 2012).
# Changes are numbered by the printed parent chain.
# T1: recombinant human RANTES (huRANTES, Peprotech) (human, UniProt P13501 24-91)
# T1 sequence: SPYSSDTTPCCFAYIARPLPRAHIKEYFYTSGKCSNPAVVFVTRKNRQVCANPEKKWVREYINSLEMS
# T2: native human RANTES produced by THP1 cells (human, UniProt P13501 24-91)
# T2 sequence: T1 sequence
# T3: huRANTES immobilized on glycosaminoglycan (biotin labeled heparin) (human, UniProt P13501 24-91)
# T3 construct: also called huRANTES immobilized on GAG; huRANTES in the context of GAG
# T3 sequence: T1 sequence
# B1: H6 scFv (scFv)
# chain: QVQLVQSGAEVKRPGASVKVSCKVSGNTLSKQSMHWVRQAPGKGFEWMGSSNPEDDETLYAKKFQGRVTMTEDTSTDTAYLELSSLRSEDTAVYYCATDSQGFYYYYGMDVWGQGTLVTVSSQSVLTQPPSVSGAPGQRVTISCTGSSSNIGADYDVHWYQQLPGTVPKLLIYDNINRPSGVPDRFSGSKSGTSASLAITGLQAEDEADYYCQSYDSSLSGVLFGGGTKVTVL
# B2: 7B5 scFv (scFv)
# chain: QVQLVQSGAEVKKPGASVKVSCKVSGYTLNDFAMHWVRQAPGKGLEWMGGYVPEDGDTIYAQKFQGRVTMTEDTSTDTAYMELSSLRSEDTAVYYCATDPLYSGSLSYWGQGTTVTVSSSYVLTQPPSVSVAPGQTARITCGGNNIESKSVHWYQQKPGQAPVLVVYDDSDRPSGIPERFSGSNSGNTATLTISRVEAGDEADYYCQVWDSGPVWWIFGGGTKLTVL
# B3: E10 scFv (scFv)
# chain: QVQLVESGGGVVQPGRSLRLSCAASGFTFSSYAMHWVRQAPGKGLEWVAVISYDGSNKYYADSVKGRFSISRDNSKNTLYLQMNSLRAEDTAVYYCARETFPHYYYYYMDVWGKGTMVTVSSSYVLTQPPSVSVAPGQTARISCGGGNFDDEGVHWYQQTPGQAPVLVVYDDTGRPSGIPERFSGSSSGNTATLTISRVEAGDEADYYCQAWDSSNDHPVFGGGTQLTVL
# B4: G2 scFv (scFv)
# chain: QVQLVQSGAEVKKPGASVKVSCRASGYALTELSIHWVRQAPGKGLEWMGGFDPEDGETIYAQNFQGRVIMTEDTSTDTAYMELSSLKSEDTAVYYCATDLTGSRDSWGQGTLVTVSSQSVLTQPASVSGSPGQSITISCTGSRSDIGYYNYVSWYQQHPGKVPKLIIYDVTERPSGVSDRFSGSKSANTASLTISGLQAEDEADYYCSSFSSGDTFVVFGGGTKLTVL
# B5: 4D8 scFv (scFv)
# chain: QVQLVQSGAEVKKPGASVKVSCKVSGYTLNDFAMHWVRQAPGKGLEWMGGYVPEDGDTIYAQKFQGRVTMTEDTSTDTAYMELSSLRSEDTAVYYCATDPLYTPGLYVWGQGTTVTVSSSYVLTQPPSVSVAPGQTARITCGGNNIESKSVHWYQQKPGQAPVLVVYDDSDRPSGIPERFSGSNSGNTATLTISRVEAGDEADYYCQVWDSNTDHWVFGGGTKVTVL
# B6: 6A8 scFv (scFv)
# chain: B5 chain with T103P, Y107Q, V108P
# B7: 2D1 scFv (scFv)
# chain: B5 chain with T103S, P104G, G105S, Y107S, V108Y
# B8: 5E1 scFv (scFv)
# chain: B5 chain with P100Y, T103I, G105S, Y107S, V108Y
# B9: E6 scFv (scFv)
# chain: QVQLVQSGAEVEKPGASVKVSCRVSGYPLTEIAIHWVRQAPGKGLEWMGSFEPEDAEAIYAQRFQGRVTMTEETSANTAYMELSSLRSEDTAVYFCATDPYYASSGSNYMEVWGRGTLVTVSSNFMLTQPHSVSESPGKTVTISCTGSGGSISSNYVQWYRQRPGSAPSTVIYEDDQRPSGVPDRISGSIDSSSNSASLTISGLTTEDEADYYCHSYDGNNRWVFGGGTKLTVL
# B10: H6 antibody, IgG1 format (antibody, V domains shown)
# VH: QVQLVQSGAEVKRPGASVKVSCKVSGNTLSKQSMHWVRQAPGKGFEWMGSSNPEDDETLYAKKFQGRVTMTEDTSTDTAYLELSSLRSEDTAVYYCATDSQGFYYYYGMDVWGQGTLVTVSS
# VL: QSVLTQPPSVSGAPGQRVTISCTGSSSNIGADYDVHWYQQLPGTVPKLLIYDNINRPSGVPDRFSGSKSGTSASLAITGLQAEDEADYYCQSYDSSLSGVLFGGGTKVTVL
# B11: 1D9 antibody, IgG1 format (antibody, V domains shown)
# VH: QVQLVQSGAEVKKPGASVKVSCKVSGYTLTEFAMHWVRQAPGKGLEWMGGFVPEDGETIYAQKFQGRVTMTEDTSTDTAYMELSSLRSEDTAVYYCATDPLYTPGLEPWGQGTTVTVSS
# VL: SYVLTQPPSVSVAPGQTARITCGGNNIESKSVHWYQQKPGQAPVLVVYDDSDRPSGIPERFSGSNSGNTATLTISRVEAGDEADYYCQVWDSNTDHWVFGGGTKLTVLG
# B12: A9 antibody, IgG1 format (antibody, V domains shown)
# VH: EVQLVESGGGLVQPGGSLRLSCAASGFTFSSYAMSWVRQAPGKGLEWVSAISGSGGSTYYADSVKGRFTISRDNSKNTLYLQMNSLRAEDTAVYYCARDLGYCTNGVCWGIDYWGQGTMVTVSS
# VL: NFMLTQPHSVSESPGKTVTISCTRSSGSIADNYVQWYQQRPGSAPTTIIYDDDQRLSGVPDRFSGSIDTSSNSASLSISGLRTEDEADYYCQSYDDSNDVFGGGTKLTVL
# B13: CG11 antibody, IgG1 format (antibody, V domains shown)
# VH: QVQLVQSGTEVKKPGATVNVSCKISGHLFTDYYIHWVQQAPGKGLEWVGLIDPKDGEIQYAEKFQARVTITADTSTDTVYMELNSLRSEDTAVYYCATEVLSGIRVFPFDPWGQGTLVTVSS
# VL: QSVLTQPPSVSGAPGQRVTISCTGSSSNIGAGYDVYWYQQFPGKAPKLLIYDTNNRPPGVPDRFSGSKSGTSASLAISGLQTEDEADYYCQSYDIALSNSNVVFGGGTKLTVL
# B14: C8 antibody, IgG1 format (antibody, V domains shown)
# VH: QVQLVESGGGVVQPGRSLRLSCAASGFTFSSYAMHWVRQAPGKGLEWVAVISYDGSNKYYADSVKGRFTISRDNSKNTLYLQMNSLRAEDTAVYYCARETFPHYYYYYMDVWGRGTLVTVSS
# VL: SYVLTQPPSVSVAPGQTARITCEGDDTDIGTVNWYQQKPGQAPVLVISEDGYRPSGIPERFSGSNSGNTATLTISRVEAGDEADYYCQFWDVDSDHPVFGGGTQLTVLG
# B15: D1 antibody, IgG1 format (antibody, V domains shown)
# VH: EVQLVQSGPEVKKPGATVKISCNVSAETFTDYYIHWVKQAPGRGLEWMGLVDSEEDGETLFAETFRGRVALTADRSTNTAYMELRSLRHDDTAVYYCAAEYGEYGFFQSWGQGTLVTVSS
# VL: QSVLTQPPSVSGAPGQRVTISCTGSSSNIGADYDVNWYQQLPGTSPKLLIYGDINRPSGVPDRFSASKSGTSASLAITGLQAEDEADYYCQSFDNSLSGSVIFGGGTKLTVL
# B16: E7 antibody, IgG1 format (antibody, V domains shown)
# VH: QVQLVQSGAEVKKPGSSVKVSCKISGGISDNYALSWVRQAPGQGLEWMGAVIPLVETTSYAQRFQGRLTITADDSLNTLYMELGSLRSDDTAMYYCAREQVAVGPGPTSNRGPDGLDVWGRGTMVTVSS
# VL: QSVLTQPPSVSGAPGQRVTISCTGSSSNIGDGYDVHWYQQLPGTAPKLLIYGNSNRPSGVPDRFSGSTSGTSASLAIRGLQSEDEADYYCGTWDDILNGWVFGGGTKLTVL
# B17: H11 antibody, IgG1 format (antibody, V domains shown)
# VH: QVQLVQSGAEVKKPGSSVKVSCKASGGISDNYALSWVRQAPGQGLEWMGGFIPLVDTTNYAQRFQGRLTITADDSMSTVYMELRSLRSDDTAMYYCAREQVAVGPGPTSDRGPDGLDVWGQGTMVTVSS
# VL: QSVLTQPSSVSGAPGHRVTISCTGSNSNLGADYDVHWYQQLPGSAPKLLIYDNNIRPSGVPARFSGSKSGTSASLAITGLQAEDEADYYCQSYDTGLTSSDVIFGGGTKLTVL
# Target: T1, recombinant human RANTES (huRANTES, …)
# Test: cell-based or functional assay
row,"Chemotaxis IC50 (nM); L1.2 cells expressing hCCR5, 1 nM huRANTES; scFv format [nM]",Binder
1,25,B1
2,1.6,B2
3,9.4,B3
4,62,B4
5,0.08,B5
6,0.94,B6
7,1.3,B7
8,0.2,B8
9,72,B9

# Target: T1, recombinant human RANTES (huRANTES, …)
# Test: cell-based or functional assay
# Remark: another data set of the same source
"Calcium Flux IC50 (nM), 10 nM rhuRANTES; L1.2-hCCR5 cells; IgG1 format [nM]","Chemotaxis IC50 (nM), 1 nM huRANTES; L1.2-hCCR5 cells; IgG1 format [nM]","Chemotaxis IC50 (nM), 0.2 nM huRANTES; L1.2-hCCR5 cells; IgG1 format [nM]",Binder
9,8.7,–,B10
–,0.35,0.038,B11
3.3,1,–,B12
9.5,4.8,–,B13
–,2.1,0.49,B14
–,7,–,B15
–,2.2,–,B16
–,1.3,–,B17

# Target: T2, native human RANTES produced by THP1 …
# Test: cell-based or functional assay
row,"Chemotaxis IC50 (nM), native huRANTES from THP1 cells; L1.2-hCCR5 cells; IgG1 format [nM]",Binder
1,0.033,B11
2,1.6,B14

# Target: T3, huRANTES immobilized on …
# Test: ELISA: biotin-heparin on streptavidin plate, huRANTES captured on the heparin, IgG detected with anti-human IgG Fc-HRP, OD450; antibody concentration not given
row,binding result,Binder
1,no binding,B10
2,no binding,B12
3,no binding,B13
4,no binding,B15
5,no binding,B16
6,no binding,B17
